Results from patent US6770740B1, “Crosslinked DNA condesate compositions and gene delivery methods” (The Regents of the University of Michigan, priority 1999, dated 2004).
Where no end group is shown, it is not given here. The star is where a group is joined. Carboxymethyl = O=C(O)C*

How the values were obtained:
[1] = system: HepG2, COS 7 and CHO cells; assay: Luciferase gene expression, result stated for each of three cell lines, Example 6; assay type: cell-based
Experimental: HepG2 cells (1.5×10^5) were plated on 6×35 mm wells and grown to 50% confluencey in MEM supplemented with 10% FBS, penicillin and streptomycin (100 U/ml), sodium pyruvate (100 mM), and L-glutamine (2 mM). Transfections were performed in MEM (2 ml per 35 mm well) with 2% FBS with and without 80 μM chloroquine. Peptide DNA condensates (10 μg of DNA of 0.2 ml HBM) were added dropwise to triplicate wells. After a 5 h incubation at 37° C., the medium was replaced with MEM supplemented with 10% FBS. After 24 h, cells were washed with ice-cold phosphate buffered saline (calcium and magnesium free) and then treated with 0.5 ml of ice-cold lysis buffer (25 mM) Tris chloride pH 7.8, 1 mM EDTA, 8 mM magnesium chloride, 1% Triton X-100, 1 mM DTT) for 10 min. […]
Lysis buffer (300 μl), sodium-ATP (4 μl of a 180 mM solution, pH 7, 4° C.) and cell lysate (100 μl, 4° C.) were combined in a test tube, briefly mixed and immediately placed in the luminometer. Luciferase relative light units (RLU) were recorded on a Lumat™ LB 9501 (Berthoid Systems, Germany) with 10 sec integration after automatic injection of 100 μl of 0.5 mM D-luciferin (prepared fresh in lysis buffer without DTT). […] Protein concentrations were measured by Bradford assay using bovine serum albumin as a standard (Bradford, 1976). […]

[2] = QELS particle size and zeta potential of peptide DNA condensates, Example 6; assay type: physicochemical; conditions: charge ratio 4:1, 50 μg/ml DNA in HBM; for Particle Size (nm): 90°, average and SD of three, No particles formed; for Zeta Potential (mV): average and SD of ten
Experimental: The particle size and zeta potential of peptide DNA condensates were determined by quasielastic light scattering (QELS) using a Brookhave ZetaPlus™. Particle size analysis was performed in triplicate at a DNA concentration of 50 μg/ml in HBM at a charge ratio of 4:1 and a scattering angle of 90°. Data analysis utilized a multimodal volume distribution option included with the instrument. Zeta potential was also determined using 50 μg/ml peptide DNA condensates prepared at a 4:1 charge ratio in HBM. The reported zeta potential was averaged from ten determinations.

[3] = Shear stress stability of cross-linked DNA condensates (salt sonication), Example 5; assay type: physicochemical; conditions: 30 sec sonication; highest lane 2.5 M
Experimental: Peptide DNA condensates (200 μl of 50 μg/ml) were formed and incubated at RT for 30 min and then combined with 0 to 200 μl of 5 M sodium chloride and normalized to 400 μl with HBM to achieve a final sodium chloride concentration of 0, 0.2, 0.4, 0.8, 1.0, 1.5, 2.0, and 2.5 M. Each sample was sonicated for 30 sec with a 100 W Microson™ XL-2000 ultrasonic probe homogenizer (Kontes, Vineland N.J.) with a vibrational amplitude of 6 to fragment uncondensed DNA (Adami et al., 1998). DNA condensates were digested with 30 μg of trypsin for 12 h at 37° C. then electrophoresed on an agarose gel and visualized by ethidium bromide staining.

[4] = QELS particle size and zeta potential of cross-linking peptide DNA condensates, Example 5; assay type: physicochemical; conditions: for Particle Size Mean Diameter, Oxidized, 15° / Particle Size Mean Diameter, Oxidized, 90°: HBM after 2 h incubation, 50 μg/ml DNA, 0.4 nmol peptide per μg DNA; for Particle Size Mean Diameter, Oxidized, 15°: scattering angle 15°; for Particle Size Mean Diameter, Oxidized, 90°: scattering angle 90°; for Particle Size Mean Diameter, Saline: HBM with added saline (0.15 M) after 15 min; for Particle Size Mean Diameter, Reduced: following addition of TCEP (1 mM)
Outline: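 Condensates at 50 μg/ml DNA in HBM, 0.4 nmol peptide per μg DNA (charge ratio ~2:1); size by QELS at 15° and 90°, mean diameter from diffusion coefficient by unimodal cumulant analysis. Peptide IV series: 7.5-37.5 nmol peptide with 75 μg DNA, charge ratio 0.5-2.5; zeta potential averaged over 10 determinations.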

[5] = Shear stress stability (salt sonication assay), Example 6; assay type: physicochemical; conditions: 30 sec sonication; highest tested 2.5 M
Experimental: The relative stability of peptide DNA condensates were examined using a salt sonication assay (Adami and Rice, 1999). Peptide DNA condensates (200 μl of 50 μg/ml) were formed as described above, incubated at RT for 30 min and then combined with 0-200 μl of 5 m […] and normalized to 400 μl with HBM to achieve a final sodium chloride concentration of 0, 0.2, 0.4, 0.8, 1.0, 1.5, 2.0 and 2.5 M. Each sample was sonicated for 30 sec with a 100 W Microson™ XL-2000 ultrasonic probe homogenizer (Kontes, Vineland N.J.) with a vibrational amplitude of 5 fragment uncondensed DNA. DNA condensates were digested with 30 μg to trypsin for 12 h at 37° C., electrophoresed on a 1% agarose gel electrophoresed in TEA buffer for 2 h, then visualized by ethidium bromide staining and destaining prior to photography on a transilluminator.

HepG2 cells = assay: Cell uptake of 125I-DNA condensates in HepG2 cells, Example 5; assay type: cell-based; conditions: HepG2, 5 h transfection
Experimental: Iodinated plasmid DNA (pCMVL) was prepared with specific activity of 300 nCi per μg of DNA as described previously (Terebesi et al., 1998). Prior to forming DNA condensates, the specific activity of the ^125I DNA was adjusted to 4.5 nCi μg of DNA by combining with unlabeled plasmid. DNA condensates were prepared using AlkCWK18 or peptide II as described above. Peptide ^125I-DNA condensates (10 μg) were used to transfect HepG2 and COS 7 cells for 5 h according to the procedure described above. The radioactive media was removed, cells were washed once with 2 ml of 1 M sodium chloride and three times with 2 ml of cold PBS and then harvested with 1 ml of lysis buffer. The cell-associated radioactivity from triplicate transfections was quantified by gamma counting.

Substance	lower gene expression in the absence of chloroquine relative to presence of 80 μM chloroquine ([1]; in each cell line)	Particle Size (nm) [2] [nm]	Zeta Potential (mV) [2] [mV]	sodium chloride concentration up to which DNA is protected from sonicative fragmentation [3] [M]	Particle Size Mean Diameter, Oxidized, 15° [4] [nm]	Particle Size Mean Diameter, Oxidized, 90° [4] [nm]	Particle Size Mean Diameter, Saline [4] [nm]	Particle Size Mean Diameter, Reduced [4] [nm]	sodium chloride concentration up to which DNA condensates are stable [5] [M]	125I-DNA uptake, % of dose (HepG2 cells)	enhancement of gene expression over peptide 1 DNA condensates ([1]; in each cell line tested, charge ratio 4, 80 μM chloroquine) [fold]
Alk-S-Cys-Trp-Lys18 (C(Carboxymethyl)WKKKKKKKKKKKKKKKKKK) [AlkCWK18]	10-15 fold	64 ± 11	26 ± 1	0.4	97	95	1215	74	0.4	9.5 % of dose	
Cys-Trp-Lys17-Cys (CWKKKKKKKKKKKKKKKKKC) [Peptide II]		53 ± 16	28 ± 9	1.0	31	42	257	121	1	8.7 % of dose	10 to 40
